{"source": "patent WO2009147196A1", "about": "(dated 2009)", "target": "Rev of the HIV-1 NL4.3 molecular clone (HIV-1)", "experiment": "cell-based or functional assay", "data": [{"binder": "Nb_190 expressed intracellularly (pcDNA3.1-Nb_190; HIV-1 NL4.3-Nb_190) (VHH) VHH: QVQLQESGGGLVQAGGSLRLSCAASGSIFSINTMGWYRQAPGKQRELVAFATSGGSTNYPDSVKGRFTISRDNVKNTVYLQMNSLKPEDTAVYYCNIDGFLGSLYKDYWSQGTQVTVSS", "values": [{"measurement": "virus production (p24) from the HIV-1 NL4.3-Nb_190 clone in HEK 293T cells", "value": 300, "unit": "fold reduction"}]}]}
